The target of the experiment is protein phosphatase-1 alpha catalytic subunit (recombinant PP1α) (UniProt P62139).
Chain of UniProt P62139 (P62139 whole entry): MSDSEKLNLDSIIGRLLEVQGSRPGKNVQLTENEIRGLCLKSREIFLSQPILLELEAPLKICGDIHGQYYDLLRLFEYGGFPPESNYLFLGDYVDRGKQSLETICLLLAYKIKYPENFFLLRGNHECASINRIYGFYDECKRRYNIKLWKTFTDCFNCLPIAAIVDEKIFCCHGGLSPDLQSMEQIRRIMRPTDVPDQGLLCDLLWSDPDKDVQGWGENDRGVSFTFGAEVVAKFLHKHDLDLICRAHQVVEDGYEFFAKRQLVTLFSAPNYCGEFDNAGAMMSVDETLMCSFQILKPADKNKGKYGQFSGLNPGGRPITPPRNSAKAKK

B1: Inh3(1–47) (domain or fragment)
chain: MAEAGAGLSETVTETTVTVTTEPENRSLTIKLRKRKPEKKVEWTSDT
For B1, the fold increase in IC50 of inhibition of PP1 activity, against Inh3(1–64) is 3.5 fold.

The record behind these values is paper PMC2613339.
